In US7037662 (dated 2006):

What was measured:
[1] = biological target: T1, soluble HEK (sHEK), complete extracellular domain (exodomain) of HEK encoded by exons I-VII (human, UniProt P29320 21-541); assay: BIAcore, LERK-FLAG over immobilised HEK; reference LERK 3-FLAG
T1 construct: extracellular domain; Untagged soluble exodomain from CHO cells; also called HEK exodomain
T1 sequence (looked up): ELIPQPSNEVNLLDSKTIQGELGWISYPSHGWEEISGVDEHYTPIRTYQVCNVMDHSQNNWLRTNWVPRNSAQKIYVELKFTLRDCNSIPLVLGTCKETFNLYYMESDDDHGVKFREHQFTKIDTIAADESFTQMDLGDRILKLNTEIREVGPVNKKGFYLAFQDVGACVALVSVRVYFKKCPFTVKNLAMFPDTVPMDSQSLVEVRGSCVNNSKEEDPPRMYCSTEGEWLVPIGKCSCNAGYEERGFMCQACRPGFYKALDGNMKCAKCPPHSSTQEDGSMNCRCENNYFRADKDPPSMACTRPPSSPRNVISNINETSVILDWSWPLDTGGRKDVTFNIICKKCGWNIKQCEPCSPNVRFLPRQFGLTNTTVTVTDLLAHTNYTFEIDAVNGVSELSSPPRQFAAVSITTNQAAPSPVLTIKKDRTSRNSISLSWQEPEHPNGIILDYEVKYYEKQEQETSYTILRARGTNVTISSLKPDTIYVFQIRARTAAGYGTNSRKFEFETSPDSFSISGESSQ

[2] = biological target: T1, soluble HEK (sHEK), complete …; assay: BIAcore, LERK 7-FLAG over immobilised sHEK, single component model
Procedure: (§1) The binding of various HEK constructs and derived peptides was analysed on the BIAcore optical biosensor (Pharmacia Biosensor, Sweden) using purified soluble HEK (corresponding to the entire extracellular domain) or LERK 7-FLAG derivatised CM 5 sensor chips and the interaction kinetics determined. The immobilization of HEK onto the sensor chip surface was performed essentially as described by Lackmann et al, 1996. LERK7-FLAG (47 μg/ml in 20 mM sodium acetate, pH 4.5) was coupled at 5 μl/min onto N-hydroxysuccinimide (NHS, 0.05 M)/N-hydroxysuccinimide-N-ethyl-N'-([…]) carbodiimide(EDC, 0.2 M) activated sensor chips (45 μl, 2 μl/min) to yield an increase in the response level of 2500–3000 response units (RU).
(§2) Figures 5A, 5B: FIG. 5: Binding curves for the interaction of monovalent LERK-FLAG fusion proteins with immobilised sHEK. Homogeneous preparations of CHO cell-derived LERK 3-FLAG (panel A) or LERK 7-FLAG (panel B) at increasing concentrations (8.22, 16.44, 32.88, 65.75, 131.5, 263, 526 nM) of LERK3-FLAG, and (1.25, 2.5, 5, 10, 20, 40, 80 nM) LERK7-FLAG were injected across an sHEK-derivatised sensor surface. BIAcore data for the association and dissociation phases were used to estimate corresponding kinetic rate constants on the basis of a one-to-one interaction model. (panel C). […]

[3] = biological target: T1, soluble HEK (sHEK), complete …; assay: BIAcore, apparent KD from kinetic rate constants, immobilised sHEK
Procedure: as §1, §2

[4] = biological target: T1, soluble HEK (sHEK), complete …; assay: BIAcore, monovalent ligand constructs on HEK; reference LERK 3-FLAG
[5] = biological target: T2, HEK I-VII (N-terminally FLAG-tagged HEK exodomain, exons I-VII) (human, UniProt P29320 21-541); assay: BIAcore, apparent KD from kinetic constants, HEK I-VII over sensor chip-immobilised LERK 7
T2 construct: extracellular domain; CHO cell product; in the zebrafish experiments expressed from injected mRNA; also called HEK-FLAG
T2 sequence (looked up): T1 sequence (looked up)
Procedure: as §1
(§3) Figure 2D: FIG. 2D: sHEK proteins at increasing concentrations (15.6–500 nM) were injected onto LERK 7-derivatised sensor chips and the association rate constants, (M) derived from BIAcore raw data using the BIA evaluation software as described in *Materials and Methods*. Figure 2E: FIG. 2E; The kinetic rate constants were then used to estimate apparent dissociation constants according to K_D=kd/ka. The mean and standard deviation from estimates at five different concentrations are shown (dark shading). In addition, equilibrium responses were used to estimate the apparent equilibrium dissociation constants (light shading).

[6] = biological target: T1, soluble HEK (sHEK), complete …; assay: BIAcore, apparent KD from kinetic constants, sHEK over sensor chip-immobilised LERK 7; sHEK over sensor chip-immobilised LERK 7
Procedure: as §1, §3

- fold lower off rate than LERK3-FLAG [1]: 40 fold
- koff [2]: 0.0061 s⁻¹
- kon [2]: 480000 M⁻¹ s⁻¹
- Kd [3]: 12 nM
- fold more avid than LERK3 [4]: 50 fold
- Kd [5]: 62 nM
- Kd [6]: 72 nM
B1: LERK 7-FLAG (monovalent LERK7/AL-1 with N-terminal FLAG peptide) (ligand, human, UniProt P52803 21-203, looked up, not shown: small tags and cut ends)
chain: QDPGSKAVADRYAVYWNSSNPRFQRGDYHIDVCINDYLDVFCPHYEDSVPEDKTERYVLYMVNFDGYSACDHTSKGFKRWECNRPHSPNGPLKFSEKFQLFTPFSLGFEFRPGREYFYISSAIPDNGRRSCLKLKVFVRPTNSCMKTIGVHDRVFDVNDKVENSLEPADDTVHESAEPSRGEN
notes: domain: mature protein stopped before the hydrophobic tail; also called soluble LERK7
